In paper PMC12151148:

What was measured:
FL-AGS3 (mouse) = assay: ITC; 25°C; 50 mM Tris (pH 8.0), 100 mM NaCl, 1 mM EDTA; one protein (0.2 mM) injected into another (0.02 mM); one-site binding model
FL-LGN (mouse) = assay: as above
[1] = molecular target: LGN-GL1234 (483–650) (mouse); assay: as above
AGS3-TPR (1–405) (mouse) = assay: ITC; 25°C; 50 mM Tris (pH 8.0), NaCl raised to 300 mM for AGS3-TPR or AGS3-L, 1 mM EDTA; one protein (0.2 mM) injected into another (0.02 mM); one-site binding model

Gαi3⋅GDP, sequence (P08754 whole entry): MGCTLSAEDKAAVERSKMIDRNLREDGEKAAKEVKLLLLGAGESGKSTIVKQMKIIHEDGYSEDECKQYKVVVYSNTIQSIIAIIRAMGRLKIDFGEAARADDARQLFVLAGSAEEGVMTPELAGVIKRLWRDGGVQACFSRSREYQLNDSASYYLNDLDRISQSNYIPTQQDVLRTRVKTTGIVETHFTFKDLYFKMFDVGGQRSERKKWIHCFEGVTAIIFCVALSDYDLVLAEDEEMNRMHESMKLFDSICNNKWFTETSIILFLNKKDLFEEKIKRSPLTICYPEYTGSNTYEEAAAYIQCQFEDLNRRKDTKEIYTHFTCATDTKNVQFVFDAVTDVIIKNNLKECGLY

| Kd (FL-AGS3 (mouse)) | Kd (FL-LGN (mouse)) | stoichiometry N (Gαi3⋅GDP per GoLoco domain) [1] | Kd (AGS3-TPR (1–405) (mouse)) | Substance |
| --- | --- | --- | --- | --- |
| 1600 nM | 1170 nM | 4 | – | Gαi3⋅GDP (from UniProt P08754 1-354) (natural protein) |
| – | – | – | 170 nM | AGS3-GL1234 (470–631) (domain or fragment) |
